Patent publication US20060204507A1 (LUDWIG INSTITUTE FOR CANCER RESEARCH, published 2006)

Biological target: T1, HLA-Cw3 on target cells
T1 construct: also called HLA-Cw*0304
Assay: inferred from FW/92 T cell recognition of peptide-pulsed target cells with lactacystin (ELISPOT)

- binding result: binds
Binder: LAMPFATPM [Nonapeptide consisting of amino acids 13-21 of SEQ ID NO: 4]
